For assay [1], the target named is T1, soluble mouse BLyS (mouse, UniProt Q9WU72 127-309).
T1 construct: europium-labelled in DELFIA; also called mBLyS; mouse BAFF (BLyS)
Put plainly: ELISA, soluble mBLyS. (An ELISA detects its analyte on a solid surface through an enzyme-linked reagent.)

The target of assay [2] is T2, soluble human BLyS (human, UniProt Q9Y275 134-285).
T2 construct: also called hBLyS; human BAFF (BLyS)
Put plainly: blocking of biotinylated soluble hBLyS binding to immobilized mBR3.

Assay [3] addresses T2, soluble human BLyS. The experiment in a line: Biacore T100, binder captured by anti-human Fc, BLyS injected, 1:1 model. How it is done:
(§1) A Series S CM5 Chip (GE Healthcare) was amine coupled with an anti-human Fc capturing antibody (GE Healthcare Human Fc Kit) to >10,000 RUs. Sample antibodies were diluted in 1×HBS-EP+ running buffer to 0.15 ug/mL and injected for 45 seconds at 10 uL/min. […] Biacore Evaluation software was used to fit the data to a 1:1 Binding Model.
Background: Surface plasmon resonance follows binding to a sensor surface in real time, without labels.

Assay [4] concerns the target T1, soluble mouse BLyS. The assay is described as above. How it is done:
as §1

Assay [5] addresses T2, soluble human BLyS. Put plainly: ELISA, soluble hBLyS.

By IC50 is commonly meant the concentration that inhibits the measured activity by half. The low end stands for greater potency in that assay, the high end for weaker potency in that assay. One may read the Kd as a measure of binding affinity in units of concentration. Higher therefore signals weaker binding. The koff is the first-order rate constant of dissociation. Broadly, the kon is a measure of how fast the partners come together.

B1: 2C5 IgG expressed in HEK293 cells (antibody, V domains shown)
VH: QVQLVQSGAEVKKPGASVKVSCKASGYTFTGYYIHWVRQAPGQGLEWMGWINPSSGGTNYAQKFQGRVTMTRDTSASTAFMSLSSLRSEDTAVYYCARSYYDILTGYSRNPFDNWGQGTPVTVSS
VL: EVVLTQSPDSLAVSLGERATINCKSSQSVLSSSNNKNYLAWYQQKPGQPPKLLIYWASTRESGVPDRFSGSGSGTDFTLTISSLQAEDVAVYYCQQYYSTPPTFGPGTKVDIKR
notes: IgG from HEK293-FreeStyle cells
For B1, the binding result with soluble mouse BLyS [1] is reported as “no binding”. In addition, in the assay with soluble human BLyS [2], the IC50 was over 100 nM.

B2: 6A11 IgG1 F243A/V264A double mutein expressed in Pichia pastoris (antibody, V domains shown)
VH: QIQLVQSGTEVKKPGASVKVSCKASGYTFTDYYMHWVRQAPGQGLEWMGRINPNSGGTNYAQKFQGRVTMTRDTSISTAYMELSRLRSDDTFVYYCAREGYDFLTGYTLGGMDVWGQGTTVTVSS
VL: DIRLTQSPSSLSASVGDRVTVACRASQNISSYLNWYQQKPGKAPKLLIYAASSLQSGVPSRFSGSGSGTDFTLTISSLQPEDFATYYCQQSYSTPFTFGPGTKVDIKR
notes: IgG1 F243A/V264A (EU) double mutein, alpha-2,6-sialylated, from glycoengineered Pichia pastoris; also called 6A11 (D132943)
On to B2, for which, in the assay with soluble human BLyS [3], the Kd is 0.905 nM, the koff amounted to 0.000174 s⁻¹ and the kon amounted to 192000 M⁻¹ s⁻¹. In the assay with soluble mouse BLyS [4], this molecule displayed a Kd of 0.121 nM, a koff of 0.000177 s⁻¹ and a kon of 1.47e+06 M⁻¹ s⁻¹.

B3: 1D6 IgG expressed in HEK293 cells (antibody, V domains shown)
VH: QVTLKESGPTLVKPTQTLTLTCTFSGFSLSTDGVGVGWIRQPPGKALEWLALIYGDDDKRYSPSLKSRLTITKDTSKNQVVLTMTNMDPVDTATYYCAHSISNYDILTGHWIAKTYDYWGQGTLVTVSS
VL: QSALTQPPSASGSPGQSVSISCIGSRSDIGYYNYVSWYQQHPGEAPKLIIFDVSKRPSGVPDRFSGSKSGNTASLTVSGLQPEDEADYYCASYGGRNNLLFGGGTQLTVLG
notes: as for B1
Consider B3, for which the binding result in the assay with soluble mouse BLyS [1] is given as “no binding”. In the assay with soluble human BLyS [2], this molecule came in with an IC50 of over 100 nM.

B4: 10B1 IgG expressed in HEK293 cells (antibody, V domains shown)
VH: EVQLVESGAEVKKPGASVKVSCKASGYTFTSYGISWVRQAPGQGLEWMGWISAYNGNTNYAQKLQGRVTMTTDTSTSTAYMELRSLRSDDTAVYYCARADYDILTGYPRGPVDYWGQGTLVTVSS
VL: QSALTQPPSASGSPGQSVTISCTGTSSDVGHYNYVSWYQQHPGKAPKLIIFDVSDRPSGVSNRFSGSKSGNTASLTISGLQAEDEANYYCSSYTSRNTLIFGGGTKLTVLG
notes: as for B1
As for B4, the binding result with soluble mouse BLyS [1] is on record as “no binding”.

B5: 1B5 IgG expressed in HEK293 cells (antibody, V domains shown)
VH: QVQLQESGPGLVEPSETLSLTCTVSGGSISGRNYYWGWIRQSTGKGLEWIGSIYYSGSTYYNPSLKSRVTISVDTSKNQFSLKLSSVTAADTAVYYCARDLANYDILTGYYRARGAFDIWGQGTMVTVSS
VL: QSALTQPASVSGSPGQSITISCTGTSSDVGGYNYVSWYQQHPGKAPKLMIYDVNKRPSGVPDRFSGSKSANTASLTVSGLQAEDEADYYCSSYTAGGNWVFGGGTKLTVLG
notes: as for B1
Regarding B5, the IC50 with soluble mouse BLyS [1] turned out to be 17 nM; in the assay with soluble human BLyS [2], 21 nM; in the assay with soluble human BLyS [5], 15 nM.

B6: 6F5 IgG expressed in HEK293 cells (antibody, V domains shown)
VH: EVQLVQSGAEVKKPGSSVKVSCKASGGTFSSYAISWVRQAPGQGLEWMGGISAYKGNTNYAQKLQGRVTMTTDTSTSTAYMELRSLRSEDTAVYYCARGRLAEYDILTGYYFNTWAFDIWGQGTMVTVSS
VL: QSALTQPASVSGSPGQSITISCTGTSSDVGGYNYVSWYQQHPGKAPKLMIYDVSKRPSGVSNRFSGSKSGNTASLTISGLQAEDEADYYCSSYTSSSTPVLFGGGTKLTVLG
notes: as for B1
B6 yielded a half-inhibitory concentration (IC50) with soluble human BLyS [2] of over 100 nM.

B7: 5G10 IgG1 F243A/V264A double mutein expressed in Pichia pastoris (antibody, V domains shown)
VH: QMQLVQSGAEVKKPGASVKVSCKASGYTFTSYAMHWVRQAPGQRLEWMGWINAGNGNTKYSQKFQGRVTITRDTSASTAYMELSSLRSEDTAVYYCAREMAVAGTYYYYGMDVWGQGTTVTVSS
VL: DIQLTQSPSTLSASVGDRVTITCRASQSISGWLAWYQQKPGRAPKLLIYKASSLESGVPSRFSGSGSGTDFTLTISSLQPEDIATYYCQQFDNLLLMYTFGQGTKLEIRR
notes: IgG1 F243A/V264A (EU) double mutein, alpha-2,6-sialylated, from glycoengineered Pichia pastoris; also called 5G10 (D132947)
Turning to B7, in the assay with soluble mouse BLyS [4], the affinity, expressed as Kd, was 0.732 nM; the koff is 0.000451 s⁻¹; the kon stood at 616000 M⁻¹ s⁻¹.

B8: 5G10 IgG expressed in HEK293 cells (antibody, V domains shown)
VH: B7 VH
VL: B7 VL
notes: as for B1
Molecule B8 showed an IC50 with soluble mouse BLyS [1] of 51 nM. That is a double-digit nanomolar value.

B9: human TACI (R&D Systems receptor chimera) (receptor, UniProt O14836 2-166, looked up, not shown: a dimerising Fc or GST)
chain: SGLGRSRRGGRSRVDQEERFPQGLWTGVAMRSCPEEQYWDPLLGTCMSCKTICNHQSQRTCAAFCRSLSCRKEQGKFYDHLLRDCISCASICGQHPKQCAYFCENKLRSPVNLPPELRRQRSGEVENNSDNSGRYQGLEHRGSEASPALPGLKLSADQVALVYST
notes: also called hTACI; TACI rec Human
With B9, in the assay with soluble mouse BLyS [4], binding was characterised by a dissociation constant (Kd) of 0.105 nM, the koff was determined as 6.5e-05 s⁻¹ and the kon came to 621000 M⁻¹ s⁻¹.

Values taken from patent US20170101466A1 (published 2017).
